We go through 1 molecule from article PMC9262588.

As a reminder, the Kd is the equilibrium constant for the complex coming apart.

The data set has as its target T1, FAM-tat peptide (UniProt P04608, also: FAM label, position not given here).
T1 chain: AAARKKRRQRRRAAA
The experiment in a line: SPR. On the technique in general: Surface plasmon resonance follows binding to a sensor surface in real time, without labels.

No end group written: not given here.

In turn, GGCAGAUCUGAGCCUGGGAGCUCUCUGCC (structured_RNA) [biotin-TAR RNA] registered an equilibrium dissociation constant (Kd) of 380 nM.
